Measured values from the Immune Epitope Database (IEDB).
Each block holds one sequence with its values, some of them ahead of it.

Experiments:
Assay in all cases: IEDB peptide-MHC binding, purified MHC/competitive/radioactivity; filed as Kd, often an IC50 or EC50 that approximates it; ≥ and ≤ were set here for values at or beyond the usual limits of such assays
HLA-A*11:01 = biological target: HLA-A*11:01
HLA-A*31:01 = biological target: HLA-A*31:01
HLA-A*68:01 = biological target: HLA-A*68:01
HLA-A*33:01 = biological target: HLA-A*33:01
HLA-A*03:01 = biological target: HLA-A*03:01
HLA-A*02:06 = settings: source organism: Homo sapiens
HLA-A*02:03 = biological target: HLA-A*02:03
[1] = source organism: Vaccinia virus WR
[2] = source organism: SARS coronavirus Tor2
[3] = source organism: Mammarenavirus whitewaterense
[4] = source organism: Mammarenavirus machupoense
[5] = source organism: Mammarenavirus lassaense
[6] = source organism: Lassa virus Josiah
[7] = source organism: Mammarenavirus brazilense

Sequence: SACANGWIQY
Kd (HLA-A*11:01; [1]): 59 nM
Kd (HLA-A*31:01; [1]): ≥ 55000 nM
Kd (HLA-A*68:01; [1]): 2890 nM
Kd (HLA-A*33:01; [1]): ≥ 40500 nM
Kd (HLA-A*03:01; [1]): 1200 nM

Sequence: SFLRKIGDK
Kd (HLA-A*11:01; [1]): 3930 nM
Kd (HLA-A*31:01; [1]): 247 nM
Kd (HLA-A*68:01; [1]): ≥ 35000 nM
Kd (HLA-A*33:01; [1]): ≥ 26200 nM
Kd (HLA-A*03:01; [1]): 7600 nM

Sequence: SFNHVLKRK
Kd (HLA-A*11:01; [2]): 1790 nM
Kd (HLA-A*31:01; [2]): 375 nM
Kd (HLA-A*68:01; [2]): ≥ 24700 nM
Kd (HLA-A*33:01; [2]): 6790 nM
Kd (HLA-A*03:01; [2]): 111 nM

Sequence: SINKVYGRY
Kd (HLA-A*11:01; [1]): 195 nM
Kd (HLA-A*31:01; [1]): 140 nM
Kd (HLA-A*68:01; [1]): 1990 nM
Kd (HLA-A*33:01; [1]): ≥ 77700 nM
Kd (HLA-A*03:01; [1]): 526 nM

Sequence: SLSPNDTTWI
Kd (HLA-A*11:01; [3]): ≥ 69700 nM
Kd (HLA-A*31:01; [3]): ≥ 32300 nM
Kd (HLA-A*68:01; [3]): ≥ 70100 nM
Kd (HLA-A*33:01; [3]): ≥ 60700 nM
Kd (HLA-A*03:01; [3]): ≥ 34600 nM

Sequence: SLVENNFFTK
Kd (HLA-A*11:01; [1]): 9.71 nM
Kd (HLA-A*31:01; [1]): 388 nM
Kd (HLA-A*68:01; [1]): 119 nM
Kd (HLA-A*33:01; [1]): 704 nM
Kd (HLA-A*03:01; [1]): 229 nM

Sequence: SSFDYCSTNH
Kd (HLA-A*11:01; [4]): 1890 nM
Kd (HLA-A*31:01; [4]): 6320 nM
Kd (HLA-A*68:01; [4]): 249 nM
Kd (HLA-A*33:01; [4]): 15600 nM
Kd (HLA-A*03:01; [4]): 17100 nM

Sequence: STQQNKLVIR
Kd (HLA-A*11:01; [1]): 2240 nM
Kd (HLA-A*31:01; [1]): 154 nM
Kd (HLA-A*68:01; [1]): 631 nM
Kd (HLA-A*33:01; [1]): 4470 nM
Kd (HLA-A*03:01; [1]): 17900 nM

Sequence: SVANGVPVH
Kd (HLA-A*11:01; [5]): 9780 nM
Kd (HLA-A*31:01; [5]): ≥ 30300 nM
Kd (HLA-A*68:01; [5]): 8070 nM
Kd (HLA-A*33:01; [5]): ≥ 77700 nM
Kd (HLA-A*03:01; [5]): 2270 nM

Sequence: TAVAKCNEKH
Kd (HLA-A*11:01; [6]): ≥ 69700 nM
Kd (HLA-A*31:01; [6]): ≥ 40100 nM
Kd (HLA-A*68:01; [6]): ≥ 70100 nM
Kd (HLA-A*33:01; [6]): ≥ 61800 nM
Kd (HLA-A*03:01; [6]): ≥ 70000 nM

Sequence: TFQLLNMIK
Kd (HLA-A*11:01; [1]): 19.5 nM
Kd (HLA-A*31:01; [1]): 326 nM
Kd (HLA-A*68:01; [1]): 11.5 nM
Kd (HLA-A*33:01; [1]): 102 nM
Kd (HLA-A*03:01; [1]): 20.8 nM

Sequence: TIREFPRKDK
Kd (HLA-A*11:01; [1]): 16200 nM
Kd (HLA-A*31:01; [1]): 295 nM
Kd (HLA-A*68:01; [1]): 7280 nM
Kd (HLA-A*33:01; [1]): ≥ 40900 nM
Kd (HLA-A*03:01; [1]): 13100 nM

Sequence: TLAILTALR
Kd (HLA-A*11:01; [2]): 4460 nM
Kd (HLA-A*31:01; [2]): 326 nM
Kd (HLA-A*68:01; [2]): 117 nM
Kd (HLA-A*33:01; [2]): 833 nM
Kd (HLA-A*03:01; [2]): 3670 nM

Sequence: TLEEAKTALK
Kd (HLA-A*11:01; [2]): 4630 nM
Kd (HLA-A*31:01; [2]): ≥ 47600 nM
Kd (HLA-A*68:01; [2]): ≥ 10000 nM
Kd (HLA-A*33:01; [2]): ≥ 70000 nM
Kd (HLA-A*03:01; [2]): 1350 nM

Kd (HLA-A*02:06): ≥ 26400 nM
Sequence: TLKYPIEHGI

Sequence: TLNHVLALKY
Kd (HLA-A*11:01; [1]): 1150 nM
Kd (HLA-A*31:01; [1]): ≥ 69100 nM
Kd (HLA-A*68:01; [1]): 13200 nM
Kd (HLA-A*33:01; [1]): ≥ 52700 nM
Kd (HLA-A*03:01; [1]): 168 nM

Sequence: TMWHVTRGAV
Kd (HLA-A*02:03; source organism: Dengue virus 2 Jamaica/1409/1983): 382 nM

Sequence: TQVYIAVNDK
Kd (HLA-A*11:01; [2]): 720 nM
Kd (HLA-A*31:01; [2]): 6720 nM
Kd (HLA-A*68:01; [2]): 1330 nM
Kd (HLA-A*33:01; [2]): 9360 nM
Kd (HLA-A*03:01; [2]): 186 nM

Sequence: TTYMDTFFR
Kd (HLA-A*11:01; [1]): 1.98 nM
Kd (HLA-A*31:01; [1]): 16.6 nM
Kd (HLA-A*68:01; [1]): 0.0507 nM
Kd (HLA-A*33:01; [1]): 10.6 nM
Kd (HLA-A*03:01; [1]): 10.4 nM

Sequence: VAGTGVQFY
Kd (HLA-A*11:01; [1]): ≥ 26500 nM
Kd (HLA-A*31:01; [1]): ≥ 53900 nM
Kd (HLA-A*68:01; [1]): ≥ 77700 nM
Kd (HLA-A*33:01; [1]): ≥ 77700 nM
Kd (HLA-A*03:01; [1]): 7270 nM

Sequence: VLFSIFYKDY
Kd (HLA-A*11:01; [1]): 972 nM
Kd (HLA-A*31:01; [1]): 1200 nM
Kd (HLA-A*68:01; [1]): 1160 nM
Kd (HLA-A*33:01; [1]): 3090 nM
Kd (HLA-A*03:01; [1]): 668 nM

Sequence: VLIFILLTA
Kd (HLA-A*02:03; source organism: Dengue virus 2 Peru/IQT2913/1996): 140 nM

Sequence: VLSIPPTAGI
Kd (HLA-A*02:03; source organism: Dengue virus 4 Philippines/H241/1956): 226 nM

Sequence: VQIGEYTFEK
Kd (HLA-A*11:01; [2]): 22 nM
Kd (HLA-A*31:01; [2]): 1660 nM
Kd (HLA-A*68:01; [2]): 350 nM
Kd (HLA-A*33:01; [2]): 11200 nM
Kd (HLA-A*03:01; [2]): 221 nM

Sequence: VQSKMSDVK
Kd (HLA-A*11:01; [2]): 198 nM
Kd (HLA-A*31:01; [2]): 7070 nM
Kd (HLA-A*68:01; [2]): ≥ 53500 nM
Kd (HLA-A*33:01; [2]): ≥ 25000 nM
Kd (HLA-A*03:01; [2]): 4160 nM

Sequence: VSTCFKLMLK
Kd (HLA-A*11:01; [2]): 15.3 nM
Kd (HLA-A*31:01; [2]): 806 nM
Kd (HLA-A*68:01; [2]): 472 nM
Kd (HLA-A*33:01; [2]): 5700 nM
Kd (HLA-A*03:01; [2]): 112 nM

Sequence: VTYTEIEPK
Kd (HLA-A*11:01; [2]): 7.49 nM
Kd (HLA-A*31:01; [2]): 1360 nM
Kd (HLA-A*68:01; [2]): 147 nM
Kd (HLA-A*33:01; [2]): ≥ 25700 nM
Kd (HLA-A*03:01; [2]): 31.2 nM

Sequence: YLCGFIKQK
Kd (HLA-A*11:01; [2]): 1650 nM
Kd (HLA-A*31:01; [2]): 3430 nM
Kd (HLA-A*68:01; [2]): 6000 nM
Kd (HLA-A*33:01; [2]): ≥ 46700 nM
Kd (HLA-A*03:01; [2]): 511 nM

Sequence: YLGSANMDWR
Kd (HLA-A*11:01; [1]): 921 nM
Kd (HLA-A*31:01; [1]): 1350 nM
Kd (HLA-A*68:01; [1]): 1070 nM
Kd (HLA-A*33:01; [1]): 3690 nM
Kd (HLA-A*03:01; [1]): 850 nM

Sequence: YLRLYIILAR
Kd (HLA-A*11:01; [1]): 1470 nM
Kd (HLA-A*31:01; [1]): 12.7 nM
Kd (HLA-A*68:01; [1]): 14.8 nM
Kd (HLA-A*33:01; [1]): 117 nM
Kd (HLA-A*03:01; [1]): 160 nM

Sequence: YSISNDLLY
Kd (HLA-A*11:01; [1]): 337 nM
Kd (HLA-A*31:01; [1]): 249 nM
Kd (HLA-A*68:01; [1]): 2310 nM
Kd (HLA-A*33:01; [1]): ≥ 65500 nM
Kd (HLA-A*03:01; [1]): 1190 nM

Sequence: YVEKEENMDK
Kd (HLA-A*11:01; [1]): 2170 nM
Kd (HLA-A*31:01; [1]): 1270 nM
Kd (HLA-A*68:01; [1]): 3370 nM
Kd (HLA-A*33:01; [1]): ≥ 69100 nM
Kd (HLA-A*03:01; [1]): ≥ 70100 nM

Sequence: YVNHTASGEH
Kd (HLA-A*11:01; [7]): ≥ 69700 nM
Kd (HLA-A*31:01; [7]): ≥ 70000 nM
Kd (HLA-A*68:01; [7]): ≥ 21700 nM
Kd (HLA-A*33:01; [7]): ≥ 69000 nM
Kd (HLA-A*03:01; [7]): ≥ 70000 nM
